Data on four molecules can be found in article PMC12328635.

First the molecules themselves.
T1: SC35 (GST-SC35) (Populus tomentosa, UniProt A0AAD6QWB7 1-302)
T1 sequence: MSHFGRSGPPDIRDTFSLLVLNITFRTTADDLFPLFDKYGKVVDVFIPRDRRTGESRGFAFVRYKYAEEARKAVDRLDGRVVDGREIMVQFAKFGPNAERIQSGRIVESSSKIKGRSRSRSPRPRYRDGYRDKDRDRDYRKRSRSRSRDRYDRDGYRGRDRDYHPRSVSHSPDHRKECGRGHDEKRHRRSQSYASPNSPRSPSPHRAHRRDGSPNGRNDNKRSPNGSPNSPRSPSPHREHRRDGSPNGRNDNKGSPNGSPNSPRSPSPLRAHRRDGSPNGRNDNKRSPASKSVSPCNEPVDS

For this data set, the target named is T1, SC35 (GST-SC35). Kind of data set: EMSA. (In general: In EMSA bound probe runs differently from free probe, usually more slowly.)
Turning to CAUUAUGUUGACCUUAAUCAAGAUAAGGUG (ssRNA) [Mutation-Probe1], the binding result is given as “no binding”.

For the molecule UUAGAGAGAGUGGAAUUAGUGGGUUUGGUU (ssRNA) [Probe2], the binding result is recorded as “binds”.

For the molecule UUAGAGAGAGUCCUUAAUCUGGGUUUGGUU (ssRNA) [Mutation-Probe2], the binding result is given as “no binding”.

Take CAUUAUGUUGAGGAAUUAGAAGAUAAGGUG (ssRNA) [Probe1]: the binding result is listed as “binds”.
